One assay addresses T1, hIL2-his (human, UniProt P60568 21-153).
T1 construct: the construct is not described further; not shown: his-tag
The assay is described as follows: ELISA (section 2.1.1): antibody (13.3 nM) captured on coated goat anti-human IgG, hIL2-his titrated (the x axis is the antigen concentration), HRP anti-6xHis. On the technique in general: In an ELISA, binding on a coated surface is turned into a signal by an enzyme label.

Assay [1] concerns the target T2, hIL2-DM-his (human, UniProt P60568 21-153).
T2 construct: expressed in ExpiCHO-S cells, nickel-column purified; also called hIL-2 mutein containing two point mutations K64G and N90R (with a his-tag); not shown: his-tag
The assay can be described thus: BLI ForteBio, Ab on Protein A sensor. A general note: BLI is a label-free optical method that tracks binding on a fibre tip over time.
Target sequence in this assay (P60568 21-153 K84G/N110R): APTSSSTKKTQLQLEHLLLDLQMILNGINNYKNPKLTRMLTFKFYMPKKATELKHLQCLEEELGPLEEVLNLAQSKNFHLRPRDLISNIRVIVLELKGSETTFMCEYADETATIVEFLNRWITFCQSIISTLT

In assay [2] the target is T2, hIL2-DM-his. The assay is described as follows: BLI ForteBio, Ab on Protein A sensor. The source holds these as a separate data set.
For another assay, the target named is T3, hIL2-TM-his (human, UniProt P60568 21-153).
T3 construct: also called hIL-2 mutein containing three point mutations K64G, N90R and M104E (with a his-tag); not shown: his-tag
T3 chain: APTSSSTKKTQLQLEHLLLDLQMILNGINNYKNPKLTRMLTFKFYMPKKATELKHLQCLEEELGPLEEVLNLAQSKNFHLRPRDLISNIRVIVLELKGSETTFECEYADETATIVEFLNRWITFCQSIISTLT
The assay can be described thus: BLI ForteBio, Ab on Protein A sensor.

For assay [3], the target named is T4, mIL2-his (mouse, UniProt P04351 21-169).
T4 construct: also called wild-type mouse IL-2 (with a his-tag); not shown: his-tag
T4 sequence (looked up): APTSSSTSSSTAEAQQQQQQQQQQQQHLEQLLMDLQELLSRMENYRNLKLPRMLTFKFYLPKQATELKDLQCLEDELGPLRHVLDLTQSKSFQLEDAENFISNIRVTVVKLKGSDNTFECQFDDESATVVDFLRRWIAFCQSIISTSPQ
The assay is described as follows: ELISA, antibody captured by anti-human IgG, mIL2-his titrated.

Assay [4] deals with T4, mIL2-his. The assay can be described thus: BLI ForteBio, Ab on Protein A sensor.

Read-outs that look alike come from different tables or passages of the source.

B1: hS4B6-H6K3 (antibody, V domains shown)
VH: QVQLVQSGAEVKKPGATVKISCKVSGDTITAYYLHWVRQAPGQGLEWIGRIDPEDDSTKYAENFKNRVTITADTSTNTAYMELSSLRSEDTAVYYCTTVTFYYSRELRWFAYWGQGTLVTVSS
VL: DIVLTQSPATLSLSPGERATLSCQASQDIGNYLSWYQQKPGQAPRLLIYSATSLADGIPARFSGSRSGTDYTLTISSLEPEDFAVYYCLQHYSTPYTFGQGTKLEIK
notes: full antibody
The Kd is a measure of binding affinity in units of concentration. The koff is a measure of how fast the partners let go of each other. Read a low koff as slow dissociation. As usually defined, the kon is the rate constant with which the complex forms. A low value points to slower complex formation. What is called EC50 is the concentration at which the effect is half-maximal. Lower therefore signals a more potent agent. As for B1, the binding result in the assay with hIL2-his is “no binding (tested: 2 µg/mL)”. Besides, in the assay with hIL2-DM-his [1], the “Binding Response (nm)” value turned out to be 0.133 nm; the affinity, expressed as Kd, was 46.9 nM; the koff worked out at 0.0193 s⁻¹; the kon came out at 413000 M⁻¹ s⁻¹. Moreover, in the assay with hIL2-DM-his [2], the affinity, expressed as Kd, was 45.3 nM; the koff worked out at 0.01 s⁻¹; the kon stood at 222000 M⁻¹ s⁻¹. Moreover, in the assay with hIL2-TM-his, binding was characterised by a dissociation constant (Kd) of 24 nM, the koff worked out at 0.00569 s⁻¹ and the kon was found to be 237000 M⁻¹ s⁻¹. The EC50 in the assay with mIL2-his [3] worked out at 0.0183 µg/mL. In the assay with mIL2-his [4], this molecule had a Kd of 1 nM, a koff of 0.00018 s⁻¹ and a kon of 179000 M⁻¹ s⁻¹.
